# Results published in article PMC5647543, “The Two-State Prehensile Tail of the Antibacterial Toxin Colicin N” (Biophysical Journal, 2017).
# T1: ColN_(90–387) (ColN-RP), receptor binding and pore forming domains of colicin N (Escherichia coli, UniProt P08083 90-387)
# T1 construct: In PDB 1A87 the first resolved residue is S91; source: purified as previously described (20, 26); 15N-labelled protein from bacteria grown in M9 minimal medium with 15NH4Cl; not shown: His6 (-SSHHHHHH), C-terminal, kept
# T1 sequence (looked up): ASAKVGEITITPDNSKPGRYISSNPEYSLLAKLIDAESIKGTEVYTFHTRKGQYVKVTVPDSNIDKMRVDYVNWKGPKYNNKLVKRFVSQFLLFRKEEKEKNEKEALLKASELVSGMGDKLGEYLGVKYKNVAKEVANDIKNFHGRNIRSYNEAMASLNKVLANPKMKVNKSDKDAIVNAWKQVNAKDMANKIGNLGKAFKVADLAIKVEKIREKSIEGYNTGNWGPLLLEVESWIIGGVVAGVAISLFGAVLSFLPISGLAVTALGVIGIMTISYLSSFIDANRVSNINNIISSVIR
# B1: ColN_(1–90) (ColN-T), isolated translocation domain of colicin N (domain or fragment)
# chain: MGSNGADNAHNNAFGGGKNPGIGNTSGAGSNGSASSNRGNSNGWSWSNKPHKNDGFHSDGSYHITFHGDNNSKPKPGGNSGNRGNNGDGA
# notes: colicin N (ColN), residues 1-90, the intrinsically disordered translocation (T-) domain; the whole toxin has 387 residues; 98-residue construct: residues 1-90 followed directly by Ser2His6; Used unlabelled in the NMR mixing experiment; also called T-domain; ColN-T(1-90)-SSHHHHHH; source: purified as previously described (20, 26), dialysed into 50 mM sodium phosphate, pH 7.6, 300 mM NaCl; not …
# Target: T1, ColN_(90–387) (ColN-RP), receptor …
# Experiment: NMR titration; free unlabelled ColN-T added to 15N-labelled ColN-RP; 15N-1H HSQC chemical shift changes; spectra at 15°C
# Details: both partners purified
binder,measurement,value
B1,binding result,binds
